Measured values published in article PMC5296763, “Structural basis for redox sensitivity in Corynebacterium glutamicum diaminopimelate epimerase: an enzyme involved in L-lysine biosynthesis” (Scientific Reports, 2017).

Tests used:
CgDapF = molecular target: T1, CgDapF (Corynebacterium glutamicum, UniProt Q8NP73); test: X-ray crystal structure, […] A; type: binding; conditions: crystallised with a 10 mM DAP isomer mixture (L,L, D,D, D,L), pH 9.0; only D,L-DAP density seen; active site
T1 construct: gene dapF

purified protein = substrate: N[C@@H](CCC[C@H](N)C(=O)O)C(=O)O; test: purified protein; type: biochemical, Corynebacterium glutamicum; conditions: 0.1 M potassium phosphate, pH 8.0, room temperature, 3.45 uM enzyme, substrate named in the assay method
[1] = molecular target: the molecule itself; test: SEC; size-exclusion chromatography under both the oxidized and the reduced conditions; data not shown

N[C@H](CCC[C@H](N)C(=O)O)C(=O)O [D,L-DAP]
X-ray crystal structure, 2.6 A (CgDapF): we determined the crystal structure of the protein in complex with the D,L-DAP product

B1: CgDapF (Corynebacterium glutamicum ATCC 13032) (protein)
chain: MNLTIPFAKGHATENDFIIIPDEDARLDLTPEMVVTLCDRRAGIGADGILRVVKAADVEGSTVDPSLWFMDYRNADGSLAEMCGNGVRLFAHWLYSRGLVDNTSFDIGTRAGVRHVDILQADQHSAQVRVDMGIPDVTGLSTCDINGQVFAGLGVDMGNPHLACVVPGLSASALADMELRAPTFDQEFFPHGVNVEIVTELEDDAVSMRVWERGVGETRSCGTGTVAAACAALADAGLGEGTVKVCVPGGEVEVQIFDDGSTLTGPSAIIALGEVQI
Km (purified protein): 1860 µM
kcat (purified protein): 58 s⁻¹

B2: Diaminopimelate epimerase (DapF) from Corynebacterium glutamicum (enzyme, UniProt Q8NP73 1-277, looked up)
chain: MNLTIPFAKGHATENDFIIIPDEDARLDLTPEMVVTLCDRRAGIGADGILRVVKAADVEGSTVDPSLWFMDYRNADGSLAEMCGNGVRLFAHWLYSRGLVDNTSFDIGTRAGVRHVDILQADQHSAQVRVDMGIPDVTGLSTCDINGQVFAGLGVDMGNPHLACVVPGLSASALADMELRAPTFDQEFFPHGVNVEIVTELEDDAVSMRVWERGVGETRSCGTGTVAAACAALADAGLGEGTVKVCVPGGEVEVQIFDDGSTLTGPSAIIALGEVQI
modifications: selenomethionine-substituted (SeMet derivative) in the crystals of the oxidized and reduced forms (5H2G, 5H2Y)
notes: Diaminopimelate epimerase (DapF, EC 5.1.1.7) of Corynebacterium glutamicum strain ATCC 13032, gene amplified from genomic DNA and cloned in pET30a; also called CgDapF; DAP epimerase; source: E. coli B834(DE3), purified (Ni-NTA, size-exclusion chromatography on Superdex 200); not shown: His tag (from the Ni-NTA purification)
stoichiometry N [1]: 2
